Reference: PMC3901934, “CAS directly interacts with vinculin to control mechanosensing and focal adhesion dynamics” (Cellular and Molecular Life Sciences: CMLS, 2013)

Biological target: T1, Vin WT GFP (GFP-fused vinculin WT) (UniProt Q64727 1-1066)
T1 sequence (looked up): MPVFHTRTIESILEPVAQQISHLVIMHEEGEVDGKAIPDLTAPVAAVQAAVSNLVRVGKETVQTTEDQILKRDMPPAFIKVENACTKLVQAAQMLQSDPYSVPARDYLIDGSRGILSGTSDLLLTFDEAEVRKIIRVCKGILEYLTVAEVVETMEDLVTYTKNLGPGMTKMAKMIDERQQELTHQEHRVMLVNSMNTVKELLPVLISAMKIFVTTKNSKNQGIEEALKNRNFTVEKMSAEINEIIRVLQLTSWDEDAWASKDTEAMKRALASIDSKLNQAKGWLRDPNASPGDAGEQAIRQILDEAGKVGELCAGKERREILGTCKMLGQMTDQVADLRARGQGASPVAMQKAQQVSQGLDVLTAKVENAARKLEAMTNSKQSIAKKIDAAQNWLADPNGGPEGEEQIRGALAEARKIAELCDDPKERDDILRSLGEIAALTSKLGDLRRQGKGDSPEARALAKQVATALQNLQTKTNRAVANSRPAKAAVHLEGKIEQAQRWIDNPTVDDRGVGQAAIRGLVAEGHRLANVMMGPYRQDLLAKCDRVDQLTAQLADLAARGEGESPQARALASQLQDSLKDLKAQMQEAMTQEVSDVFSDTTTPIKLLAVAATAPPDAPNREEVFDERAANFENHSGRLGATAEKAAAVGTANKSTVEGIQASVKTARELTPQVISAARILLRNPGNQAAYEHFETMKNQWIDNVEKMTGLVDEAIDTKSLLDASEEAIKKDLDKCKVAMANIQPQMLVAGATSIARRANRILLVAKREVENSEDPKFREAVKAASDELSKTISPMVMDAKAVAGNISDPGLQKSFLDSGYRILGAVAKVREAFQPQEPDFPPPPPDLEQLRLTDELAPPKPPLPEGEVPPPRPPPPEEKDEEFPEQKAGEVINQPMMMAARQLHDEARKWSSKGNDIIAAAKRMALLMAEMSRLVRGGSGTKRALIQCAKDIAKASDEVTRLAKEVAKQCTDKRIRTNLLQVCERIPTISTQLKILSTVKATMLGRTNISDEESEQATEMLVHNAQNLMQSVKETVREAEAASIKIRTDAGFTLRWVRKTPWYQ
Experiment: cell-based or functional assay

B1: full-length CAS (in Vin-/- MEFs) (natural protein, mouse (endogenous in MEFs), UniProt Q61140 1-874, looked up)
chain: MTVPNVLAKALYDNVAESPDELSFRKGDIMTVLERDTQGLDGWWLCSLHGRQGIVPGNRLKILVGMYDKKPVGPGPGPPATPPQPQPSLPQGVHAPVPPASQYSPMLPTAYQPQSDNVYLVPTPSKTQQGLYQAPGPNPQFQSPPAKQTSTFSKQTPHHSFPSPATDLYQVPPGPGSPAQDIYQVPPSAGIGHDIYQVPPSLDTRGWEGTKPPAKVVVPTRVGQGYVYEAAQTEQDEYDTPRHLLAPGPQDIYDVPPVRGLLPNQYGQEVYDTPPMAVKGPNGRDPLLDVYDVPPSVEKGLLSSSHHSVYDVPPSVSKDVPDGPLLREETYDVPPAFAKPKPFDPTRHPLILAAPPPDSPAAEDVYDVPPPAPDLYDVPPGLRRPGPGTLYDVPRERVLPPEVADGSVVDDGVYAVPPPAEREAPTDGKRLSASSTGSTRSSQSASSLEVVVPGREPLELEVAVESLARLQQGVSTTVAHLLDLVGSASGPGGWRGTSEPQEPPAQDLKAAVAAVHGAVHELLEFARGAVSNATHTSDRTLHAKLSRQLQKMEDVYQTLVVHGQVLDSGRGSPGFTPEDLDRLVACSRAVPEDAKQLASFLHGNASLLFRRTKAPGPGPEGSSSLHPNPTDKASSIQSRPLPSPPKFTSQDSPDGQYENSEGGWMEDYDYVHLQGKEEFEKTQKELLERGNIMRQGKGQLELQQLKQFERLEQEVSRPIDHDLANWTPAQPLVPGRTGGLGPSDRQLLLFYLEQCEANLTTLTDAVDAFFTAVATNQPPKIFVAHSKFVILSAHKLVFIGDTLSRQAKAADVRSQVTHYSNLLCDLLRGIVATTKAAALQYPSPSAAQDMVDRVKELGHSTQQFRRVLGQLAAA
- fold change of CAS Y410 phosphorylation after 20 % static stretch for 10 min, Vin-/- MEFs re-expressing WT vinculin: 2.4 fold
